Reference: the DeepSol protein solubility set

Assay: soluble on expression in E. coli; label from the status in PepcDB or PDB records

| Sequence | soluble on expression in E. coli |
| --- | --- |
| MTEMSFLSSEVLVGDLMSPFDQSGLGAEESLGLLDDYLEVAKHFKPHGFSSDKAKAGSSEWLAVDGLVSPSNNSKEDAFSGTDWMLEKMDLKEFDLDALLGIDDLETMPDDLLTTLDDTCDLFAPLVQETNKQPPQTVNPIGHLPESLTKPDQVAPFTFLQPLPLSPGVLSSTPDHSFSLELGSEVDITEGDRKPDYTAYVAMIPQCIKEEDTPSDNDSGICMSPESYLGSPQHSPSTRGSPNRSLPSPGVLCGSARPKPYDPPGEKMVAAKVKGEKLDKKLKKMEQNKTAATRYRQKKRAEQEALTGECKELEKKNEALKERADSLAKEIQYLKDLIEEVRKARGKKRVP | soluble |
| MGHHHHHHGGHMSLMASISSLGVGSGLDLSSILDSLTAAQKATLTPISNQQSSFTAKLSAYGTLKSALTTFQTANTALSKADLFSATSTTSSTTAFSATTAGNAIAGKYTISVTHLAQAQTLTTRTTRDDTKTAIATSDSKLTIQQGGDKDPITIDISAANSSLSGIRDAINNAKAGVSASIINVGNGEYRLSVTSNDTGLDNAMTLSVSGDDALQSFMGYDASASSNGMEVSVAAQNAQLTVNNVAIENSSNTISDALENITLNLNDVTTGNQTLTITQDTSKAQTAIKDWVNAYNSLIDTFSSLTKYTAVDAGADSQSSSNGALLGDSTLRTIQTQLKSMLSNTVSSSSYKTLAQIGITTDPSDGKLELDADKLTAALKKDASGVGALIVGDGKKTGITTTIGSNLTSWLSTTGIIKAATDGVSKTLNKLTKDYNAASDRIDAQVARYKEQFTQLDVLMTSLNSTSSYLTQQFENNSNSKEGGS | soluble |
| MSLSTIDLHVHSNYSDGIHPPADLVKMAAERGLVAIAIADHDTVDGIDEALIAGARLGVEVVPAVELSAEHGRYRDMHILGYHLDHRDPRLVDMLAEFRINREIRGRAIVDKINQRLADGRKPLLSYDEVLNLAEGAVGRPHIGRMLIERGYARNMEDAFRRYLIPCNVPKRYIPAGDAITEIRRAGGVAVLAHPITVSDDRQVLRGIVSELVALGLDGIEVFNNMCYKDDMLFLEFLCRESGLLMTGGSDFHGFEDDVEIGSGREGHHHHHH | not soluble |
| MKKKLLAGAITLLSVATLAACSKGSEGADLISMKGDVITEHQFYEQVKSNPSAQQVLLNMTIQKVFEKQYGSELDDKEVDDTIAEEKKQYGENYQRVLSQAGMTLETRKAQIRTSKLVELAVKKVAEAELTDEAYKKAFDEYTPDVTAQIIRLNNEDKAKEVLEKAKAEGADFAQLAKDNSTDEKTKENGGEITFDSASTEVPEQVKKAAFALDVDGVSDVITATGTQAYSSQYYIVKLTKKTEKSSNIDDYKEKLKTVILTQKQNDSTFVQSIIGKELQAANIKVKDQAFQNIFTQYIGGGDSSSSSSTSNE | soluble |
| MGSDKIHHHHHHMKFFNREKEIEEILHIIESEPQRINFIFGSINSGKTALINEIINNRLNKDKYVVFYFDLREIFISKYDDFIEVLFEEYEEPFIDKVKRLFLSLIKDYPDVIKSYALLNITGVVDSIPIPKNTLNELLKKRNVKNVFRYITSVLIKIKREGKQPIIIIDELQKIGDLKLNGFLIYELFNYFVSLTKHKHLCHVFCLSSDSLFIERVYNEAMLEGRCKYILVDDFDRETALKFMDFLAKENNINLTNEDKELIYNYVGGKPIDIIYVINEMKYKKLEDILTSMLKEETQKLKYFLENVKEEDEELYKKVVDALKIFKDSYEIEDIKIPKKLREFLVKKNILFLNPIEGTLKPQSFLVWNAIKRIL | not soluble |
| SMVRLKKSFGQHLLVSEGVLKKIAEELNIEEGNTVVEVGGGTGNLTKVLLQHPLKKLYVIELDREMVENLKSIGDERLEVINEDASKFPFCSLGKELKVVGNLPYNVASLIIENTVYNKDCVPLAVFMVQKEVAEKLQGKKDTGWLSVFVRTFYDVNYVMTVPPRFFVPPPKVQSAVIKLVKNEKFPVKDLKNYKKFLTKIFQNRRKVLRKKIPEELLKEAGINPDARVEQLSLEDFFKLYRLIEDSGE | soluble |
| MATHGQTCARPMCIPPSYADLGKAARDIFNKGFGFGLVKLDVKTKSCSGVEFSTSGSSNTDTGKVTGTLETKYKWCEYGLTFTEKWNTDNTLGTEIAIEDQICQGLKLTFDTTFSPNTGKKSGKIKSSYKRECINLGCDVDFDFAGPAIHGSAVFGYEGWLAGYQMTFDSAKSKLTRNNFAVGYRTGDFQLHTNVNDGTEFGGSIYQKVCEDLDTSVNLAWTSGTNCTRFGIAAKYQLDPTASISAKVNNSSLIGVGYTQTLRPGVKLTLSALVDGKSINAGGHKVGLALELEA | soluble |
| GPGSMKNISNKRIIKDLKLLLEEVDANNEANSSGSPHSAAIFSVHTDTIYNWILKVKAPADSVYGGAGNTYQLSVLFSEDYPHEPPTVRFVTPVYSPLVTEEGGICDRMVNDVWTPDQRASDVIKLVLDRVFSQYKNHSDDDVNPEARHYLEKFPQEFAARVRRGG | soluble |
| MASQTQGIQQLLAAEKRAAEKINEARKRKLQRTKQAKQEAQAEVEKYKQQREAEFKAFEQQYLGTKEDIESKIRRDTEDQISGMKQSVAGNKQAVIVRLLQLVCDIKPELHHNLTLQKKLHGQFAA | not soluble |
| MGSDKIHHHHHHMTRFRSTLPQVNGTTLLTDSGLETTLIFHDGLDLPCFAAYPLMETAEGRAVLRDYFQRHLAIASERSAGFLLESPTWRASRDWGAQLGHGPDDLARLNNDAIAMLVDLRDDATGVGPIVISGNIGPRGDGYVADAAMTADEAEDYHAEQIGWFAQSEVDLATAVTLSTVAEGVGVIRAAHRVDLPVVVSFTTETDGRLPDGTPLGRAIEQTDALTDGAAAYFMVNCAHPDHFRPVLDTGTAWLNRIGGVRANASRMSHAELDEAETLDAGDPAELGRDYRDLRQILPNLTVIGGCCGTDHRHIEAMADRCLGHNAA | not soluble |
| MKVDSLHNLSYKEEFEGDMKRSTAAYKKVSEDASIGSTYIADISEVGSQISGEPVQRIKIPEHRQILKRSLIKPVIMAGGNGKRLWPLASKDKPKQFKKILSDLTLLQQTLNRNKFLGQPTIITSKKYESITKEQATEIDVEIALITEPLQKNTAVCAIITALSATALGFDIVVLLPSNHHIADDINYLNTINKALHYVNECGICTIFL | not soluble |
| MSLDWDSVHVPGPHAMTIQELVDYVNARQKQGIYEEYEDIRRENPVGTFHCSMSPGNLEKNRYGDVPCLDQTRVKLTKRSGHTQTDYINASFMDGYKQKNAYIGTQGPLENTYRDFWLMVWEQKVLVIVMTTRFEEGGRRKCGQYWPLEKDSRIRFGFLTVTNLGVENMNHYKKTTLEIHNTEERQKRQVTHFQFLSWPDYGVPSSAASLIDFLRVVRNQQSLAVSNMGARSKGQCPEPPIVVHCSAGIGRTGTFCSLDICLAQLEELGTLNVFQTVSRMRTQRAFSIQTPEQYYFCYKAILEFAEKEGMVSSGQNLLAVESQEGHHHHHH | soluble |
| MGSDKIHHHHHHMRNWLLPEYIEDVLPRDAYRIEKIRRLIMDMLFAHGYQFVMPPLLEYVESLLAGSGSGMNLRMFKVVDQLSGRMMGLRADMTPQAARIDAHLLNISGVTRLCYASSVVHTVPDEITRTREPFQVGAELYGHSGIESDLEIQCLLLECLSVSGIHSIHLDLGHIRVFRSLIRDSGIKPEFEMELYAALWAKDISSLKELVRTGLNKRLTRSVQNALLLLPELYGDGTVLLSARQHLPDFPEIGEALDQLEHVARILQPYVDRITFDLADLRGYHYHTGMVFAVYTPGCPAPIALGGRYDEIGKSFGRARPATGFSLDLKQLSQLTDMNGYPSGILAPWKPEDEKLAAMVRQLRAEGHIVVTELPGEENQEVTGCDRKLVFRNGNWEIDPVTG | not soluble |
| SAYIHIPFCEHICHYCDFNKYFIQSQPVDEYLNALEQEMINTIAKTGQPDLKTIFIGGGTPTSLSEEQLKKLMDMINRVLKPSSDLSEFAVDANPDDLSAEKLKILKEAGVNRLSFGVQTFEDDLLEKIGRVHKQKDVFTSFERAREIGFENISLDLMFGLPGQTLKHLEHSINTALSLDAEHYSVYSLIVEPKTVFYNLMQKGRLHLPPQEQEAEMYEIVMSKMEAHGIHQYEISNFAKAGMESKHNLTYWSNEQYFGFGAGAHGYIGGTRTVNVGPVKHYIDLIAEKGFPYRDTHEVTTEEQIEEEMFLGLRKTAGVSKKRFAEKYGRSLDGLFPSVLKDLAEKGLIHNSES | not soluble |
| GRYEIRFSGAGGQGLILAGVIMAEAASIYDGKQAVQSQSYGPEARGGASKSEVIISDGPVDYPKATQCDALLALTQEACDKYSADLKEGGVLLVDSDLVTKLPPGNYQTTAFNIINTAKNDVGREIVANIVALGAMVALTGVVSKEAAEKAVLSRVPEAFVELNRKAFQMGFEKALAAKK | soluble |
| LRKQVELLFNTRYAKAIGISEPVKVPYSKFLMHPEELFVVGLPEGISLRRPNCFGIAKLRKILEASNSIQFVIKRPELLTEGVKEP | soluble |
| MGHHHHHHSHMVTPVTWMDNPIEVYVNDSVWVPGPTDDHCPAKPEEEGMMINISIGYHYPPICLGRAPGCLMPAVQNWLVEVPTVSPISRFTYHMVSGMSLRPRVNYLQDFSYQRSLKFRPKGKPCPKEIPKGSKNTEVLVWEECVANSAVILQNSEFGTIID | not soluble |
| MRQTNNKESTMKPTADILASIIEEVRPLTSKGIVADYIPALAKVPSDKLGIAVFTNQGEVITAGDAQEGFSIQSISKVLSLTLAMGLYQPDELWSRVGKEPSGQAFNSLIQLEMEQGIPRNPFINAGAIVVCDMLQSRLSAPRQRLLEFVRQLSGEPQIAYDKVVAASEMMHSDRNAAIAYLMRSFGNFHNEVIPVLHNYFHACALKMSCVELAKTFSYLANKGVSVVTGETVITPTQSKQTNALLATCGLYDGAGEFAYRVGMPGKSGVGGGIIAVVPGEMTIAVWSPALDQSGNSLAGTRALELLAQRIGRSIFLEHHHHHH | soluble |
| MEALNKKLFRLNSKEKIQKSTGTFVPDLPNGSFLKENGSMELLNDYFFKNKDIYISKHNRFADYPYHTHQFLELNYMYSGSSEQVIEGNKETLHEGELLLLDSACHHSIKATGEKDILINILFRDQQISLEWLTSIKKKNSLLFDFLLHSSVSEQSLKKYIIFQSAQIPHIQQFLNQIITEYFLEEEFSSRIITLYLPILFTELVRKCDTYLADDLTSAQSSTTSTMLEVIKLIESNYRTITLTSAADTLGYNKNYLSNFIKKNTNFTFTELVNKQKMLAANLLIETTSTPIELIIEKVGFSNKTYFYSLYKKTFNLLPNEVRNKK | not soluble |
| MTVLSPSLPHAAGIDAALVENPWLGLRRSGRYFQNAETEALFARALGYARAGVCVHLAGPAGLGKTTLALRIAQALGRPVAFMTGNEWLGSRDFIGGEIGQTVTSVVDRYIQSVRRTEQSARIDWKESILGQAMRCGQTFIYDEFTRASPEANAALLSVLEEGVLVSTDGASRHQYIEAHPDFRVLLTSNPHEYQGVKAAPDALIDRMVTLRLEEPSAPTLAGIVALRSGLDPATARRIVDLILSVQRSGEMQAPPSMRTAILVARLAAPLRLAGRLSDAALAEIAADVLRGRGLEADAAAFEAKLAAPTPGETARLEHHHHHH | not soluble |
| MLDLIDSAKESVWIVSPYFVPDEEALAVIRRVAMSGVDVRVIIPGKGDRGISFHGSNAYVKTMIEAGAKMYAYADDSFVHAKAMLVDGTRAAIGTANFDVRSFRLNHELMVFLYDESEAMLHLKRDFKKDFEDSRLFTMKDMENKPLLTRIKEVLSSLLSPIL | not soluble |
| MTDVPALEIKNLHKTFGQNEVLKGISLQAQKGDVISIIGSSGSGKSTFLRCINLLETPTAGEIWVKGELIQMKTTRQGTVQPAKEKQVQRIRSRLAMVFQSFNLWSHMTVLENVIEAPVHVLGVPKAQAIEQAERLLRKVGLYERKDYYPGHLSGGQQQRAAIARALAVEPEVMLFDEPTSALDPELVGEVLGVMRDLAEEGRTMLVVTHEMAFARDVSNHVMFLHQGKVEEQGKPEKLFKNPDSERLKQFISSIY | not soluble |
